# Experiment: soluble on expression in E. coli; label from the status in PepcDB or PDB records
row,Sequence,soluble on expression in E. coli
1,MSLKHGRTRLIGLIIADITNPYSVNVMSGIEAACREKGFTLLVCNTNNELDQELHYLDLLRSYQVEGIVVNAVGMREDGLNRLQQSALPMVLIDRKIPDFACDVVGLDNAQAATTATEHLVEKGFEAILFLSEPLGSVNTRRERLSAFRATLARHHGVVAENAEVQLNDGAMLDNVLRQFHARHRGMRKAVISANGALTLQVARALKRVGLIWGSDIGLLGFDELEWAELAGVGITTLKQPTWQIGYAAVEQVIRRIAGTNDPIRERVFSGELIVRGSTSREGHHHHHH,soluble
2,MSLKHMLIAGGGIGGLSAAISLRKAGFSVTLCEAASENRKTGAGILQPQNALAVLKELGVFEDCCKHGFQTEWFKTFDEQGNLLFQVSESFLDDSLPGRNNILRKTLNDILMKHAEAVGVDIKWGKKVVAYEETAESVTALCEDGEKMQADILAGFDGIHSVVRDKMLQKETEKEHLGMGAWRFYIELPDYTFEDATFMYRSGDTQIGVVPLAQHAGYVFVLQPCTSDYWDEEDTRFDRVKEILSGFRGLDFVTKHMSKQHPVIFNKLEQVAVQEPWHKGRVIIGGDAAHAGAPTLAQGAAMAIEDAIVLAEELQNHADHETALQAYYKRRAPRALKVQNLSSEIVRRRLKGEPGAEELIGECYAVLREGYEGGSHHHHHH,soluble
3,MSLKIAMIGLGDIAQKAYLPVLAQWPDIELVLCTRNPKVLGTLATRYRVSATCTDYRDVLQYGVDAVMIHAATDVHSTLAAFFLHLGIPTFVDKPLAASAQECENLYELAEKHHQPLYVGFNRRHIPLYNQHLSELAQQECGALRSLRWEKHRHALPGDIRTFVFDDFIHPLDSVNLSRQCNLDDLHLTYHMSEGLLARLDVQWQTGDTLLHASMNRQFGITTEHVTASYDNVAYLFDSFTQGKMWRDNQESRVALKDWTPMLASKGFDAMVQDWLQVAAAGKLPTHIIERNLASHQLAEAICQQITQQVTKGEGGSHHHHHH,soluble
4,MSLKIILVEDEENLARLLKEAIGDNFHSFTVAKDGIEGIEFFKKIRPDIVITDIMMPNLDGLKMAKELKRINPNIPIIILSAFSEKEKLLSAIDVGITKYFIKPFDAEELLEYISSITSRIENKILKLSDCYIFNKNTSSLYKNEKYIALSKNDIKFLYLLLDSKNRTVDDISIKEALWGGDASDERLRTFIKRFREKTSKMLIKNIKGFGYQLLLNEGHHHHHH,not soluble
5,MSLKIKLETYYVCKGELAMNPEVSQLLEQIELRKDELLELTKTLIRFETPAPPARNTNEAQQFVADFLRKRNFSVDKWDVYPNDPNVVGVKKGIESETHKSLIINGHMDVAEVSADEAWEKNPFEPFIKDGWLVGRGAADMKGGLAGALFAIQLLEEAGIELPGDLIFQSVIGEEVGEAGTLQCCRRGYDADFAVVVDTSDLHMQGQGGVITGWITVKSPQTFHDATRRQMIHAGGRLFGASAIEKMMKIVQSLQELERHWAVMKTYEGYPSGTTTINPAVIEGGRHAAFIADECRLWITVHFYPNETHEQIIKEIEEYIGKVAAADPWLSENPPQFKWGGESMIVDRGEIFPSLEIDSEHAAVKTLSSVHESVLSKHAILDMSATVTDGGWFSEFHIPAVIYGPGTLEEAHSINEKVEVEQLIEFTKVITAFIYEWCHTKEGHHHHHH,soluble
6,MSLKIKVYLYTRVSTSIQIEGYSLEAQKSRMKAFAIYNDYEIVGEYEDAGKSGKSIEGRIQFNRMMEDIKSGKDGVSFVLVFKLSRFARNAADVLSTLHIMQDYGVNLICVEDGIDSSKDAGKLMISVLSAVAEIERENIRIQTMEGRIQKAREGKWNGGFAPYGYKLEDGKLFINEEEAVAIRTIFDQYVNTTIGANGISKYLENHGIRKIPRQNGKNPLFDAGLIRKILKNPVYNGKIAFGRRTLEKVHGTRNEYKQVEQDEYLISEGIHEAIVSDEVWQAAQVKLKSQAKKYEHVNKGKDTRTHLLSGIVKCPICGVGMFGNKCIKKKKDGTKYKDFYYYGCNHRQMIRGHKCTFSKQIREELLDDAVAEVIVKIVSNPKFASMMQEKINMKVDTSEIEKEIDNYQKELRKSHSTKFKLIEEIDNLDVEDKHYKRRKQDLDDRLYRMYDKIDELESSLIDAKAKKQTIEAEKLTGDNIYKVLIYFDKLYKVMNDVERRQLISALISEIQVYEEKQSNGQWLKSITFKLPIIEENLNIDLDNDEQVECVSLLEKRSEGHHHHHH,soluble
7,MSLKILFSPSESKNENCTKNPIDENSFIFKELFPYRMEALKHYGEFIKNASLKNLQELFGIKNENEIDKFKHDLKQAPTQEAIMLYTGVSYEYLNFKALDKKSQAYILENTLIFSNLFGVVRANDTLPFYKFKQGAKIGNFTIEKFYKEHFSKALDEYLENEEILDLRAGFYDKFYTPKKKFYTYKFVKNGKVISHFAKAYRGILLSISAKNQVKNNKELLANLPSNLKLKEIQIKGLKEEIALEILDEGHHHHHH,soluble

# Source: the DeepSol protein solubility set
